Test results reported in paper PMC3379008.

Biological target: B/Florida/04/06 full-length HA protein produced from baculovirus in Spodoptera frugiperda insect cells (influenza B virus B/Florida/04/06)
Assay: SEC

B/Florida/04/06 full-length HA protein produced from baculovirus in Spodoptera frugiperda insect cells (natural protein)
stoichiometry N: > 9 HA monomers
